# Test results as given in IntAct's records for PubMed 21621563.
# B1: Forkhead box protein O3 (Homo sapiens), O43524 (parent)
# chain: MAEAPASPAPLSPLEVELDPEFEPQSRPRSCTWPLQRPELQASPAKPSGETAADSMIPEEEDDEDDEDGGGRAGSAMAIGGGGGSGTLGSGLLLEDSARVLAPGGQDPGSGPATAAGGLSGGTQALLQPQQPLPPPQPGAAGGSGQPRKCSSRRNAWGNLSYADLITRAIESSPDKRLTLSQIYEWMVRCVPYFKDKGDSNSSAGWKNSIRHNLSLHSRFMRVQNEGTGKSSWWIINPDGGKSGKAPRRRAVSMDNSNKYTKSRGRAAKKKAALQTAPESADDSPSQLSKWPGSPTSRSSDELDAWTDFRSRTNSNASTVSGRLSPIMASTELDEVQDDDAPLSPMLYSSSASLSPSVSKPCTVELPRLTDMAGTMNLNDGLTENLMDDLLDNITLPPSQPSPTGGLMQRSSSFPYTTKGSGLGSPTSSFNSTVFGPSSLNSLRQSPMQTIQENKPATFSSMSHYGNQTLQDLLTSDSLSHSDVMMTQSDPLMSQASTAVSAQNSRRNVMLRNDPMMSFAAQPNQGSLVNQNLLHHQHQTQGALGGSRALSNSVSNMGLSESSSLGSAKHQQQSPVSQSMQTLSDSLSGSSLYSTSANLPVMGHEKFPSDLDLDMFNGSLECDMESIIRSELMDADGLDFNFDSLISTQNVVGLNVGNFTGAKQASSQSWVPG
# Experiments:
# [1] = variants of: B1; conditions: with 1433z_mouse Ywhaz
# [2] = variants of: B1; conditions: with akt1_human AKT1, P31749
# akt1_human AKT1, P31749, sequence (P31749 whole entry): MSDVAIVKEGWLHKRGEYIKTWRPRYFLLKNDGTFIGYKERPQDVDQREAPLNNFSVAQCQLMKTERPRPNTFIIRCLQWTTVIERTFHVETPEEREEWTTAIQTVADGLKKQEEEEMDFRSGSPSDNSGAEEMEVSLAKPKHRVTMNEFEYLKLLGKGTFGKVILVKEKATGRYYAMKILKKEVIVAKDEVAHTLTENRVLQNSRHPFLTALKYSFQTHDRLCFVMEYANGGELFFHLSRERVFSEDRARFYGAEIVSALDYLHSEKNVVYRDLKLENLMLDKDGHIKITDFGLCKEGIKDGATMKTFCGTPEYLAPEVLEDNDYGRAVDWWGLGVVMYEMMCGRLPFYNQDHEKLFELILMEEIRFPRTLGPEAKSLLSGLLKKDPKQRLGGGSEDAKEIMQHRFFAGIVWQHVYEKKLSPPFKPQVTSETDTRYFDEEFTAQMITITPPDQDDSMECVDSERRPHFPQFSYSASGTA
effect of a mutation on the interaction [1],effect of a mutation on the interaction [2],Variant
decreasing interaction strength,with no effect,P34A
disrupting interaction strength,with no effect,R27L;R29L
disrupting interaction strength,decreasing interaction strength,R27L;R29L;R248L;R250L
disrupting interaction strength,decreasing interaction strength,R27L;R29L;R248L;R250L;R310L;R312L
disrupting interaction strength,decreasing interaction strength,T32A;S253A;S315A
